Data: patent US20030049732A1 (Human Genome Sciences, published 2003)

T1: Nod1 (human, UniProt Q9Y239 1-953)
T1 construct: also called wild-type Nod1; WT Nod1
T1 sequence: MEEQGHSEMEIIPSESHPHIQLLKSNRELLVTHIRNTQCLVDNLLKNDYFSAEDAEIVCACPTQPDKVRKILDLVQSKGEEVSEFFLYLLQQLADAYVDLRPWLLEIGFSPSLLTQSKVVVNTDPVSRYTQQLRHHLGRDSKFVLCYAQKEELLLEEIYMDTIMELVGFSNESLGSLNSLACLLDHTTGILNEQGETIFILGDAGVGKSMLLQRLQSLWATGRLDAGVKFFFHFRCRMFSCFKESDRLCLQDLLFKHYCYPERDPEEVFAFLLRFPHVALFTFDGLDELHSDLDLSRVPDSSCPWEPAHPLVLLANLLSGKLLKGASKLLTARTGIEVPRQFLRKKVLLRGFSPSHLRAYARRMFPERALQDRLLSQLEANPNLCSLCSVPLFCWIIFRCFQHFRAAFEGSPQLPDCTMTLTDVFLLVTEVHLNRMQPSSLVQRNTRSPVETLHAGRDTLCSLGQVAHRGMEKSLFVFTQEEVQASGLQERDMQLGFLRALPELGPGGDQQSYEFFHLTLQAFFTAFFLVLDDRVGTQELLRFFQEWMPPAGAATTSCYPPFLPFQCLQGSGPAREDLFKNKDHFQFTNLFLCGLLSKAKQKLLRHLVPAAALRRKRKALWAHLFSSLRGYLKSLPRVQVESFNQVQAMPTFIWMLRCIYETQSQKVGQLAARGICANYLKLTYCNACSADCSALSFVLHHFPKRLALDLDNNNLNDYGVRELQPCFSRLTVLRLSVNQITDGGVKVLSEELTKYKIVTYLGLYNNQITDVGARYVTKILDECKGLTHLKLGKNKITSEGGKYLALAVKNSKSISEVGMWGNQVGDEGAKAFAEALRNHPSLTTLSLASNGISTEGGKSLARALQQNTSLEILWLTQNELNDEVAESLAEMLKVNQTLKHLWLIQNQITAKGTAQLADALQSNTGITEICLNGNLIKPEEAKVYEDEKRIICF

B1: A20 (other, UniProt P21580 1-790, looked up)
chain: MAEQVLPQALYLSNMRKAVKIRERTPEDIFKPTNGIIHHFKTMHRYTLEMFRTCQFCPQFREIIHKALIDRNIQATLESQKKLNWCREVRKLVALKTNGDGNCLMHATSQYMWGVQDTDLVLRKALFSTLKETDTRNFKFRWQLESLKSQEFVETGLCYDTRNWNDEWDNLIKMASTDTPMARSGLQYNSLEEIHIFVLCNILRRPIIVISDKMLRSLESGSNFAPLKVGGIYLPLHWPAQECYRYPIVLGYDSHHFVPLVTLKDSGPEIRAVPLVNRDRGRFEDLKVHFLTDPENEMKEKLLKEYLMVIEIPVQGWDHGTTHLINAAKLDEANLPKEINLVDDYFELVQHEYKKWQENSEQGRREGHAQNPMEPSVPQLSLMDVKCETPNCPFFMSVNTQPLCHECSERRQKNQNKLPKLNSKPGPEGLPGMALGASRGEAYEPLAWNPEESTGGPHSAPPTAPSPFLFSETTAMKCRSPGCPFTLNVQHNGFCERCHNARQLHASHAPDHTRHLDPGKCQACLQDVTRTFNGICSTCFKRTTAEASSSLSTSLPPSCHQRSKSDPSRLVRSPSPHSCHRAGNDAPAGCLSQAARTPGDRTGTSKCRKAGCVYFGTPENKGFCTLCFIEYRENKHFAAASGKVSPTASRFQNTIPCLGRECGTLGSTMFEGYCQKCFIEAQNQRFHEAKRTEEQLRSSQRRDVPRTTQSTSRPKCARASCKNILACRSEELCMECQHPNQRMGPGAHRGEPAPEDPPKQRCRAPACDHFGNAKCNGYCNECFQFKQMYG
B2: Caspase-3 (enzyme, UniProt P42574 1-277, looked up)
chain: MENTENSVDSKSIKNLEPKIIHGSESMDSGISLDNSYKMDYPEMGLCIIINNKNFHKSTGMTSRSGTDVDAANLRETFRNLKYEVRNKNDLTREEIVELMRDVSKEDHSKRSSFVCVLLSHGEEGIIFGTNGPVDLKKITNFFRGDRCRSLTGKPKLFIIQACRGTELDCGIETDSGVDDDMACHKIPVEADFLYAYSTAPGYYSWRNSKDGSWFIQSLCAMLKQYADKLEFMHILTRVNRKVATEFESFSFDATFHAKKQIPCIVSMLTKELYFYH
B3: Caspase-7 (enzyme, UniProt P55210 1-303, looked up)
chain: MADDQGCIEEQGVEDSANEDSVDAKPDRSSFVPSLFSKKKKNVTMRSIKTTRDRVPTYQYNMNFEKLGKCIIINNKNFDKVTGMGVRNGTDKDAEALFKCFRSLGFDVIVYNDCSCAKMQDLLKKASEEDHTNAACFACILLSHGEENVIYGKDGVTPIKDLTAHFRGDRCKTLLEKPKLFFIQACRGTELDDGIQADSGPINDTDANPRYKIPVEADFLFAYSTVPGYYSWRSPGRGSWFVQALCSILEEHGKDLEIMQILTRVNDRVARHFESQSDDPHFHEKKQIPCVVSMLTKELYFSQ
B4: Ced-4 (other, UniProt P30429 1-549, looked up)
chain: MLCEIECRALSTAHTRLIHDFEPRDALTYLEGKNIFTEDHSELISKMSTRLERIANFLRIYRRQASELGPLIDFFNYNNQSHLADFLEDYIDFAINEPDLLRPVVIAPQFSRQMLDRKLLLGNVPKQMTCYIREYHVDRVIKKLDEMCDLDSFFLFLHGRAGSGKSVIASQALSKSDQLIGINYDSIVWLKDSGTAPKSTFDLFTDILLMLKSEDDLLNFPSVEHVTSVVLKRMICNALIDRPNTLFVFDDVVQEETIRWAQELRLRCLVTTRDVEISNAASQTCEFIEVTSLEIDECYDFLEAYGMPMPVGEKEEDVLNKTIELSSGNPATLMMFFKSCEPKTFEKMAQLNNKLESRGLVGVECITPYSYKSLAMALQRCVEVLSDEDRSALAFAVVMPPGVDIPVKLWSCVIPVDICSNEEEQLDDEVADRLKRLSKRGALLSGKRMPVLTFKIDHIIHMFLKHVVDAQTIANGISILEQRLLEIGNNNVSVPERHIPSHFQKFRRSSASEMYPKTTEETVIRPEDFPKFMQLHQKFYDSLKNFACC
B5: DEDD (other, UniProt O75618 1-318, looked up)
chain: MAGLKRRASQVWPEEHGEQEHGLYSLHRMFDIVGTHLTHRDVRVLSFLFVDVIDDHERGLIRNGRDFLLALERQGRCDESNFRQVLQLLRIITRHDLLPYVTLKRRRAVCPDLVDKYLEETSIRYVTPRALSDPEPRPPQPSKTVPPHYPVVCCPTSGPQMCSKRPARGRATLGSQRKRRKSVTPDPKEKQTCDIRLRVRAEYCQHETALQGNVFSNKQDPLERQFERFNQANTILKSRDLGSIICDIKFSELTYLDAFWRDYINGSLLEALKGVFITDSLKQAVGHEAIKLLVNVDEEDYELGRQKLLRNLMLQALP
B6: FADD (other, UniProt Q13158 1-208, looked up)
chain: MDPFLVLLHSVSSSLSSSELTELKFLCLGRVGKRKLERVQSGLDLFSMLLEQNDLEPGHTELLRELLASLRRHDLLRRVDDFEAGAAAGAAPGEEDLCAAFNVICDNVGKDWRRLARQLKVSDTKIDSIEDRYPRNLTERVRESLRIWKNTEKENATVAHLVGALRSCQMNLVADLVQEVQQARDLQNRSGAMSPMSWNSDASTSEAS
B7: IKKa (enzyme, UniProt O15111 1-745, looked up)
chain: MERPPGLRPGAGGPWEMRERLGTGGFGNVCLYQHRELDLKIAIKSCRLELSTKNRERWCHEIQIMKKLNHANVVKACDVPEELNILIHDVPLLAMEYCSGGDLRKLLNKPENCCGLKESQILSLLSDIGSGIRYLHENKIIHRDLKPENIVLQDVGGKIIHKIIDLGYAKDVDQGSLCTSFVGTLQYLAPELFENKPYTATVDYWSFGTMVFECIAGYRPFLHHLQPFTWHEKIKKKDPKCIFACEEMSGEVRFSSHLPQPNSLCSLVVEPMENWLQLMLNWDPQQRGGPVDLTLKQPRCFVLMDHILNLKIVHILNMTSAKIISFLLPPDESLHSLQSRIERETGINTGSQELLSETGISLDPRKPASQCVLDGVRGCDSYMVYLFDKSKTVYEGPFASRSLSDCVNYIVQDSKIQLPIIQLRKVWAEAVHYVSGLKEDYSRLFQGQRAAMLSLLRYNANLTKMKNTLISASQQLKAKLEFFHKSIQLDLERYSEQMTYGISSEKMLKAWKEMEEKAIHYAEVGVIGYLEDQIMSLHAEIMELQKSPYGRRQGDLMESLEQRAIDLYKQLKHRPSDHSYSDSTEMVKIIVHTVQSQDRVLKELFGHLSKLLGCKQKIIDLLPKVEVALSNIKEADNTVMFMQGKRQKEIWHLLKIACTQSSARSLVGSSLEGAVTPQTSAWLPPTSAEHDHSLSCVVTPQDGETSAQMIEENLNCLGHLSTIIHEANEEQGNSMMNLDWSWLTE
notes: also called IKKα
B8: IKKb (enzyme, UniProt O14920 1-756, looked up)
chain: MSWSPSLTTQTCGAWEMKERLGTGGFGNVIRWHNQETGEQIAIKQCRQELSPRNRERWCLEIQIMRRLTHPNVVAARDVPEGMQNLAPNDLPLLAMEYCQGGDLRKYLNQFENCCGLREGAILTLLSDIASALRYLHENRIIHRDLKPENIVLQQGEQRLIHKIIDLGYAKELDQGSLCTSFVGTLQYLAPELLEQQKYTVTVDYWSFGTLAFECITGFRPFLPNWQPVQWHSKVRQKSEVDIVVSEDLNGTVKFSSSLPYPNNLNSVLAERLEKWLQLMLMWHPRQRGTDPTYGPNGCFKALDDILNLKLVHILNMVTGTIHTYPVTEDESLQSLKARIQQDTGIPEEDQELLQEAGLALIPDKPATQCISDGKLNEGHTLDMDLVFLFDNSKITYETQISPRPQPESVSCILQEPKRNLAFFQLRKVWGQVWHSIQTLKEDCNRLQQGQRAAMMNLLRNNSCLSKMKNSMASMSQQLKAKLDFFKTSIQIDLEKYSEQTEFGITSDKLLLAWREMEQAVELCGRENEVKLLVERMMALQTDIVDLQRSPMGRKQGGTLDDLEEQARELYRRLREKPRDQRTEGDSQEMVRLLLQAIQSFEKKVRVIYTQLSKTVVCKQKALELLPKVEEVVSLMNEDEKTVVRLQEKRQKELWNLLKIACSKVRGPVSGSPDSMNASRLSQPGQLMSQPSTASNSLPEPAKKSEELVAEAHNLCTLLENAIQDTVREQDQSFTALDWSWLQTEEEEHSCLEQAS
notes: also called IKKβ

Target: T1, Nod1
Experiment: co-immunoprecipitation, tagged proteins transiently expressed in 293T cells
Description: The CARD and its structurally related death effector domain (DED) are peptide motifs that mediate interactions between apoptosis-regulatory proteins (Science 281:1301 (1998); Hofmann et al., Trends Biochem. Sci. 22:155 (1998)).

Binding result, no binding:
B1
B2
B3
B4
B5
B6
B7
B8
